In test [1] the target is T1, L1CAM on L1CAM-overexpressing human cholangiocarcinoma cells (SCK-L1) (UniProt P32004 20-1257).
T1 construct: whole, on cells; also called L1 cell adhesion molecule
Description: flow cytometry.

Test [2] deals with T2, GST-pre-S1 (1st to 56th amino acids) protein (hepatitis B virus, UniProt P08515 1-218 = GST). Description: BLI (Octet Red), antibody captured on anti-human Fc tip, GST-pre-S1 in solution.
Description: Thereafter, the biosensor tip was saturated with 2 μg/mL of the antibody for 10 minutes. […] The binding and separation rates were measured for 15 minutes and 30 minutes, respectively. In all the measurements, a baseline drift was corrected by subtracting a control sensor exposed to only a running buffer. The operating temperature was maintained at 30° C. The data was analyzed using a 1:1 interaction model (fitting global, Rmax unlinked by sensor) equipped with ForteBio data analysis software 7.0.
Test [3] addresses T2, GST-pre-S1 (1st to 56th amino acids) …. Nature of the test: BLI (Octet Red).
For test [4] the target is unchanged. Description: affinity determination (competitive ELISA / Octet Red; FIGS. 2 to 5 cited).

T2 sequence (P08515 whole entry): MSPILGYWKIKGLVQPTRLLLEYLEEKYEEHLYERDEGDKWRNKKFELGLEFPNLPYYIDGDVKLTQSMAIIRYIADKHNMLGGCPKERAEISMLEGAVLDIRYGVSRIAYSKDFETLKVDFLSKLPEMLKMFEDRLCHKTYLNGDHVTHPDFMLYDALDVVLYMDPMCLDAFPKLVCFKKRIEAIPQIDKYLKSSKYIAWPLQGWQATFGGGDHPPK
T1 sequence (P32004 20-1257 limits assumed): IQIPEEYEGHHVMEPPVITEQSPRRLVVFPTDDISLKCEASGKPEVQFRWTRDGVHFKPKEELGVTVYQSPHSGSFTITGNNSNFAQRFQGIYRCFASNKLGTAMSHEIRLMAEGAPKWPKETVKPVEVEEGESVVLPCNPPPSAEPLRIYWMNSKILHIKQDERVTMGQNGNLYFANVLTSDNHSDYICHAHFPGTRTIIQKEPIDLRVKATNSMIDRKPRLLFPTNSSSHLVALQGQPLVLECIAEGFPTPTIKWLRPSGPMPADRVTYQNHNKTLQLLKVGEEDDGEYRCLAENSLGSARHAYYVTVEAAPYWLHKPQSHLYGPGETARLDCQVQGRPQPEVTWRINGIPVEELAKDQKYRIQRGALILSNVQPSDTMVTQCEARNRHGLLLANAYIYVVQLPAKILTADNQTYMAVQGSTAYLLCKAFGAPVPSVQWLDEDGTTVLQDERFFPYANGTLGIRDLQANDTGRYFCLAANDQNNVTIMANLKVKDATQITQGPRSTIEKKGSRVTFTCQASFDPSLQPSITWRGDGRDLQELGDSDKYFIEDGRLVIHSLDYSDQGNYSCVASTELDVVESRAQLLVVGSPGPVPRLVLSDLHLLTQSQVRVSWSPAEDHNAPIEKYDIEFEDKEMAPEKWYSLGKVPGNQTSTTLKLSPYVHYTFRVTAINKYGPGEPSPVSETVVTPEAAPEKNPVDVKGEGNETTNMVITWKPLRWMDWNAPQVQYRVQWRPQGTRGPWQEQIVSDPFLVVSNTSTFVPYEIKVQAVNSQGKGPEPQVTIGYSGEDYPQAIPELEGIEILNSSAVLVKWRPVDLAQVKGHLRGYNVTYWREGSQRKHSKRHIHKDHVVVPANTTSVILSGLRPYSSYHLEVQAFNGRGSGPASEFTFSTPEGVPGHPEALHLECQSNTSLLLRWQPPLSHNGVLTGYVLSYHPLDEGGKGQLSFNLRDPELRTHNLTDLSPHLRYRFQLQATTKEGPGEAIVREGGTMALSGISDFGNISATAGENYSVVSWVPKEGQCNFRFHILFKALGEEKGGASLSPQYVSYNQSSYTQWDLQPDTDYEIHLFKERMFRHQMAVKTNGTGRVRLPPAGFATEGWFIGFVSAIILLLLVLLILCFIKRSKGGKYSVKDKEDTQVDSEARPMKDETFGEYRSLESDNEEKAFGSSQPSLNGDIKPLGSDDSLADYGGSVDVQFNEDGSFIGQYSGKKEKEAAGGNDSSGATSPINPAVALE

B1: humanized antibody HzKR127-3.2 (antibody, V domains shown)
VH: QVQLQQSGAEVKKPGASVKVSCKASGYTFTSSWMNWVRQAPGQGLEWMGRIYPGDGDTSYAQKFQGRVTMTADKSTSTVYMELSSLRSEDTAVYYCAREYAEAYWGQGTLVTVSS
VL: DIVMTQTPLSLSVTPGQPASISCKSSQSLLYSNGKTYLNWLLQKPGQPPQRLIYLVSNRDSGVPDRFSGSGSGTDFTLKISRVEAEDVGVYYCVQGTHFPQTFGGGTKVEIKR
In the case of B1, in test [1], the binding result is recorded as “no binding (tested: 1 µg of the antibody in 100 µL)”. Also, in test [2], the equilibrium dissociation constant (Kd) was 493 pM, the koff came to 5.32e-05 s⁻¹ and the association rate constant (kon) stood at 108000 M⁻¹ s⁻¹. In addition, the “fold higher affinity than HzKR127-3.1” value in test [3] came out at 1.6 fold. Further, in test [4], the “fold higher affinity than KR127” value is 2.5 fold.

(Values after US20170260258A1 (GENEONE LIFE SCIENCE, published 2017).)
